Assay results: IntAct's records for PubMed 29892012

B1: Enhancer of mRNA-decapping protein 3 (Homo sapiens), Q96F86 (parent)
chain: MATDWLGSIVSINCGDSLGVYQGRVSAVDQVSQTISLTRPFHNGVKCLVPEVTFRAGDITELKILEIPGPGDNQHFGDLHQTELGPSGAGCQVGINQNGTGKFVKKPASSSSAPQNIPKRTDVKSQDVAVSPQQQQCSKSYVDRHMESLSQSKSFRRRHNSWSSSSRHPNQATPKKSGLKNGQMKNKDDECFGDDIEEIPDTDFDFEGNLALFDKAAVFEEIDTYERRSGTRSRGIPNERPTRYRHDENILESEPIVYRRIIVPHNVSKEFCTDSGLVVPSISYELHKKLLSVAEKHGLTLERRLEMTGVCASQMALTLLGGPNRLNPKNVHQRPTVALLCGPHVKGAQGISCGRHLANHDVQVILFLPNFVKMLESITNELSLFSKTQGQQVSSLKDLPTSPVDLVINCLDCPENVFLRDQPWYKAAVAWANQNRAPVLSIDPPVHEVEQGIDAKWSLALGLPLPLGEHAGRIYLCDIGIPQQVFQEVGINYHSPFGCKFVIPLHSA
partner: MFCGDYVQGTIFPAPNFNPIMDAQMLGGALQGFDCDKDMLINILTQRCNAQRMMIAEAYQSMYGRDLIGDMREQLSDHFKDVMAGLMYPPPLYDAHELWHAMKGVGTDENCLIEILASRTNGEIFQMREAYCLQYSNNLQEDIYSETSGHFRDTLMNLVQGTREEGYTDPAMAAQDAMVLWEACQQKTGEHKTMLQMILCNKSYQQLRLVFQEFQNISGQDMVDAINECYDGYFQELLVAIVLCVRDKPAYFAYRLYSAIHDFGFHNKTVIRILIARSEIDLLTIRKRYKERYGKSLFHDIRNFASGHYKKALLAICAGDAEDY
B2: Enhancer of mRNA-decapping protein 3 (Homo sapiens), Q96F86 (parent)
chain: B1 chain
partner: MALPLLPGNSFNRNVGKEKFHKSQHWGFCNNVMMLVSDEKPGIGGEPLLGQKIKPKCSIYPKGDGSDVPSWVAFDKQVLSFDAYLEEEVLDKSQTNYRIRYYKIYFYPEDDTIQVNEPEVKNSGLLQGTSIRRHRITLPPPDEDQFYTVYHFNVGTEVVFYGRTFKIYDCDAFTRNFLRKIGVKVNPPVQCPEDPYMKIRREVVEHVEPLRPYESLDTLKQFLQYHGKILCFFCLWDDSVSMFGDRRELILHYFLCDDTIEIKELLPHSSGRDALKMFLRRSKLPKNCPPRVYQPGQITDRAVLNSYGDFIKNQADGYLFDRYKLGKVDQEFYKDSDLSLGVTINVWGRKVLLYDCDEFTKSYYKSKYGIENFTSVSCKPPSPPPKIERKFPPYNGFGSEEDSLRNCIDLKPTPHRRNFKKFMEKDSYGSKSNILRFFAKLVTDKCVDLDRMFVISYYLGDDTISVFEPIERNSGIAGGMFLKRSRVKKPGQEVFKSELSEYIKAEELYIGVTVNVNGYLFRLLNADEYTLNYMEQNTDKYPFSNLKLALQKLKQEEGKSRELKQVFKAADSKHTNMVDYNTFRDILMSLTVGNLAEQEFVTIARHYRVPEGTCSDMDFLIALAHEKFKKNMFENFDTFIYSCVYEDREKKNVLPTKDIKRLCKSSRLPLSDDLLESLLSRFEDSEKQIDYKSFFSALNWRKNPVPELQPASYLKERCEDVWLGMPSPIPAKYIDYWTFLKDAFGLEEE
B3: Exportin-6 (Homo sapiens), Q96QU8 (parent)
chain: MASEEASLRALESLMTEFFHDCTTNERKREIEELLNNFAQQIGAWRFCLYFLSSTRNDYVMMYSLTVFENLINKMWLGVPSQDKMEIRSCLPKLLLAHHKTLPYFIRNKLCKVIVDIGRQDWPMFYHDFFTNILQLIQSPVTTPLGLIMLKTTSEELACPREDLSVARKEELRKLLLDQVQTVLGLLTGILETVWDKHSVTAATPPPSPTSGESGDLLSNLLQSPSSAKLLNQPIPILDVESEYICSLALECLAHLFSWIPLSASITPSLLTTIFHFARFGCDIRARKMASVNGSSQNCVSGQERGRLGVLAMSCINELMSKNCVPMEFEEYLLRMFQQTFYLLQKITKDNNAHTVKSRLEELDESYIEKFTDFLRLFVSVHLRRIESYSQFPVVEFLTLLFKYTFHQPTHEGYFSCLDIWTLFLDYLTSKIKSRLGDKEAVLNRYEDALVLLLTEVLNRIQFRYNQAQLEELDDETLDDDQQTEWQRYLRQSLEVVAKVMELLPTHAFSTLFPVLQDNLEVYLGLQQFIVTSGSGHRLNITAENDCRRLHCSLRDLSSLLQAVGRLAEYFIGDVFAARFNDALTVVERLVKVTLYGSQIKLYNIETAVPSVLKPDLIDVHAQSLAALQAYSHWLAQYCSEVHRQNTQQFVTLISTTMDAITPLISTKVQDKLLLSACHLLVSLATTVRPVFLISIPAVQKVFNRITDASALRLVDKAQVLVCRALSNILLLPWPNLPENEQQWPVRSINHASLISALSRDYRNLKPSAVAPQRKMPLDDTKLIIHQTLSVLEDIVENISGESTKSRQICYQSLQESVQVSLALFPAFIHQSDVTDEMLSFFLTLFRGLRVQMGVPFTEQIIQTFLNMFTREQLAESILHEGSTGCRVVEKFLKILQVVVQEPGQVFKPFLPSIIALCMEQVYPIIAERPSPDVKAELFELLFRTLHHNWRYFFKSTVLASVQRGIAEEQMENEPQFSAIMQAFGQSFLQPDIHLFKQNLFYLETLNTKQKLYHKKIFRTAMLFQFVNVLLQVLVHKSHDLLQEEIGIAIYNMASVDFDGFFAAFLPEFLTSCDGVDANQKSVLGRNFKMDRDLPSFTQNVHRLVNDLRYYRLCNDSLPPGTVKL
B4: Structure-specific endonuclease subunit SLX4 (Homo sapiens), Q8IY92 (parent)
chain: MKLSVNEAQLGFYLGSLSHLSACPGIDPRSSEDQPESLKTGQMMDESDEDFKELCASFFQRVKKHGIKEVSGERKTQKAASNGTQIRSKLKRTKQTATKTKTLQGPAEKKPPSGSQAPRTKKQRVTKWQASEPAHSVNGEGGVLASAPDPPVLRETAQNTQTGNQQEPSPNLSREKTRENVPNSDSQPPPSCLTTAVPSPSKPRTAQLVLQRMQQFKRADPERLRHASEECSLEAAREENVPKDPQEEMMAGNVYGLGPPAPESDAAVALTLQQEFARVGASAHDDSLEEKGLFFCQICQKNLSAMNVTRREQHVNRCLDEAEKTLRPSVPQIPECPICGKPFLTLKSRTSHLKQCAVKMEVGPQLLLQAVRLQTAQPEGSSSPPMFSFSDHSRGLKRRGPTSKKEPRKRRKVDEAPSEDLLVAMALSRSEMEPGAAVPALRLESAFSERIRPEAENKSRKKKPPVSPPLLLVQDSETTGRQIEDRVALLLSEEVELSSTPPLPASRILKEGWERAGQCPPPPERKQSFLWEGSALTGAWAMEDFYTARLVPPLVPQRPAQGLMQEPVPPLVPPEHSELSERRSPALHGTPTAGCGSRGPSPSASQREHQALQDLVDLAREGLSASPWPGSGGLAGSEGTAGLDVVPGGLPLTGFVVPSQDKHPDRGGRTLLSLGLLVADFGAMVNNPHLSDVQFQTDSGEVLYAHKFVLYARCPLLIQYVNNEGFSAVEDGVLTQRVLLGDVSTEAARTFLHYLYTADTGLPPGLSSELSSLAHRFGVSELVHLCEQVPIATDSEGKPWEEKEAENCESRAENFQELLRSMWADEEEEAETLLKSKDHEEDQENVNEAEMEEIYEFAATQRKLLQEERAAGAGEDADWLEGGSPVSGQLLAGVQVQKQWDKVEEMEPLEPGRDEAATTWEKMGQCALPPPQGQHSGARGAEAPEQEAPEEALGHSSCSSPSRDCQAERKEGSLPHSDDAGDYEQLFSSTQGEISEPSQITSEPEEQSGAVRERGLEVSHRLAPWQASPPHPCRFLLGPPQGGSPRGSHHTSGSSLSTPRSRGGTSQVGSPTLLSPAVPSKQKRDRSILTLSKEPGHQKGKERRSVLECRNKGVLMFPEKSPSIDLTQSNPDHSSSRSQKSSSKLNEEDEVILLLDSDEELELEQTKMKSISSDPLEEKKALEISPRSCELFSIIDVDADQEPSQSPPRSEAVLQQEDEGALPENRGSLGRRGAPWLFCDRESSPSEASTTDTSWLVPATPLASRSRDCSSQTQISSLRSGLAVQAVTQHTPRASVGNREGNEVAQKFSVIRPQTPPPQTPSSCLTPVSPGTSDGRRQGHRSPSRPHPGGHPHSSPLAPHPISGDRAHFSRRFLKHSPPGPSFLNQTPAGEVVEVGDSDDEQEVASHQANRSPPLDSDPPIPIDDCCWHMEPLSPIPIDHWNLERTGPLSTSSPSRRMNEAADSRDCRSPGLLDTTPIRGSCTTQRKLQEKSSGAGSLGNSRPSFLNSALWDVWDGEEQRPPETPPPAQMPSAGGAQKPEGLETPKGANRKKNLPPKVPITPMPQYSIMETPVLKKELDRFGVRPLPKRQMVLKLKEIFQYTHQTLDSDSEDESQSSQPLLQAPHCQTLASQTYKPSRAGVHAQQEATTGPGAHRPKGPAKTKGPRHQRKHHESITPPSRSPTKEAPPGLNDDAQIPASQESVATSVDGSDSSLSSQSSSSCEFGAAFESAGEEEGEGEVSASQAAVQAADTDEALRCYIRSKPALYQKVLLYQPFELRELQAELRQNGLRVSSRRLLDFLDTHCITFTTAATRREKLQGRRRQPRGKKKVERN
partner: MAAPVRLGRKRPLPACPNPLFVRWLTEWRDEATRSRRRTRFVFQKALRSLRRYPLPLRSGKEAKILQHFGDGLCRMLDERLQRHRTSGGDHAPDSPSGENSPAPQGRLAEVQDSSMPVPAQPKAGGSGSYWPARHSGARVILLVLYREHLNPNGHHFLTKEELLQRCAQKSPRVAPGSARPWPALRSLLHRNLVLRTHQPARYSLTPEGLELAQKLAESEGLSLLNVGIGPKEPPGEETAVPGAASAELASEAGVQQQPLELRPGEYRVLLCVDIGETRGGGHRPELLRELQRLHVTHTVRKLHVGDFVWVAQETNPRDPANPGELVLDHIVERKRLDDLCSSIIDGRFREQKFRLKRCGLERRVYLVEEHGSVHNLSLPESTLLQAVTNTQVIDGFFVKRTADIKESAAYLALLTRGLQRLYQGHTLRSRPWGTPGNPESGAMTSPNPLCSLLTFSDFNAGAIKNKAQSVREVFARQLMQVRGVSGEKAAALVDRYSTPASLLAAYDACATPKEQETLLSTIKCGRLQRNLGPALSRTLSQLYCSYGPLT
B5: Protein VAC14 homolog (Homo sapiens), Q08AM6 (parent)
chain: MNPEKDFAPLTPNIVRALNDKLYEKRKVAALEIEKLVREFVAQNNTVQIKHVIQTLSQEFALSQHPHSRKGGLIGLAACSIALGKDSGLYLKELIEPVLTCFNDADSRLRYYACEALYNIVKVARGAVLPHFNVLFDGLSKLAADPDPNVKSGSELLDRLLKDIVTESNKFDLVSFIPLLRERIYSNNQYARQFIISWILVLESVPDINLLDYLPEILDGLFQILGDNGKEIRKMCEVVLGEFLKEIKKNPSSVKFAEMANILVIHCQTTDDLIQLTAMCWMREFIQLAGRVMLPYSSGILTAVLPCLAYDDRKKSIKEVANVCNQSLMKLVTPEDDELDELRPGQRQAEPTPDDALPKQEGTASGGPDGSCDSSFSSGISVFTAASTERAPVTLHLDGIVQVLNCHLSDTAIGMMTRIAVLKWLYHLYIKTPRKMFRHTDSLFPILLQTLSDESDEVILKDLEVLAEIASSPAGQTDDPGPLDGPDLQASHSELQVPTPGRAGLLNTSGTKGLECSPSTPTMNSYFYKFMINLLKRFSSERKLLEVRGPFIIRQLCLLLNAENIFHSMADILLREEDLKFASTMVHALNTILLTSTELFQLRNQLKDLKTLESQNLFCCLYRSWCHNPVTTVSLCFLTQNYRHAYDLIQKFGDLEVTVDFLAEVDKLVQLIECPIFTYLRLQLLDVKNNPYLIKALYGLLMLLPQSSAFQLLSHRLQCVPNPELLQTEDSLKAAPKSQKADSPSIDYAELLQHFEKVQNKHLEVRHQRSGRGDHLDRRVVL
partner: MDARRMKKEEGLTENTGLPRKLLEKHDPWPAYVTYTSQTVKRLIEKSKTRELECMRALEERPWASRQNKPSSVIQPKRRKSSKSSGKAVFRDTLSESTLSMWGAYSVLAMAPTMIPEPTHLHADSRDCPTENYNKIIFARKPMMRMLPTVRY

Variants of: B1
Conditions: with anx10_human ANXA10, Q9UJ72

Variant | effect of a mutation on the interaction
F213L | with no effect

Variants of: B2
Conditions: with efhc2_human EFHC2, Q5JST6

Variant | effect of a mutation on the interaction
F213L | with no effect

Variants of: B3
Conditions: with nup62_human NUP62, P37198
Sequence of nup62_human NUP62, P37198 (P37198 whole entry): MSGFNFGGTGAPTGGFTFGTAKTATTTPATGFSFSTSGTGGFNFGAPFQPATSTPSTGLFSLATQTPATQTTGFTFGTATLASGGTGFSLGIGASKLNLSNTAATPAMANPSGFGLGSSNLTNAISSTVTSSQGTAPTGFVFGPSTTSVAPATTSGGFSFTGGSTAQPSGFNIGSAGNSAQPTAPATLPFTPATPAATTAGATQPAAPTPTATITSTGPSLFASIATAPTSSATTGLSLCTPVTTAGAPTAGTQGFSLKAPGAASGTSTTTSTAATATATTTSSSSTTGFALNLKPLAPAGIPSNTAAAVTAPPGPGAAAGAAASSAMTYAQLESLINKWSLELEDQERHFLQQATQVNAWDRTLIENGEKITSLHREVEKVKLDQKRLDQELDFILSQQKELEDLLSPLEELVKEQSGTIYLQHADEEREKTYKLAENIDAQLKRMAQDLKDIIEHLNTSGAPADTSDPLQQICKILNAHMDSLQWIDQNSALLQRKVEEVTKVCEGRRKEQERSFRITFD

Variant | effect of a mutation on the interaction
L512V | with no effect

Variants of: B4
Conditions: with mus81_human MUS81, Q96NY9

Variant | effect of a mutation on the interaction
V886L | with no effect

Variants of: B4
Conditions: with mus81_human MUS81, Q96NY9
Remark: another data set of the same source

Variant | effect of a mutation on the interaction
F708L | disrupting interaction strength

Variants of: B5
Conditions: with cdrt4_human CDRT4, Q8N9R6

Variant | effect of a mutation on the interaction
A127S | with no effect
